Patent US20160272937A1, “METHODS OF GENERATING INTERMEDIATE MESODERM CELLS FROM HUMAN PLURIPOTENT STEM CELLS” (THE BRIGHAM AND WOMEN'S HOSPITAL, INC., priority 2013, published 2016)

Experiments:
[1] = system: CHIR-induced hPSCs; assay: Growth factor screen for PAX2 induction in CHIR-induced mesendodermal cells (immunostaining); assay type: cell-based, human; details: day 4
Description: For immunofluorescence studies, cultures are washed once with PBS (Invitrogen) and fixed in 4% paraformaldehyde for 15 min at room temperature (RT). Fixed cells are then washed three times in PBS and incubated in blocking buffer (0.3% Triton X-100 (Fisher Scientific) and 5% normal donkey serum (EMD Millipore) in PBS) for 1 hour at RT.
The cells are then incubated with primary antibody overnight at 4° C. or for 2 hours at RT in antibody dilution buffer (0.3% Triton X-100 and 1% BSA (Roche) in PBS). Cells are then washed three times in PBS and incubated with Alexa Fluor 488-, 555-, or 647-conjugated secondary antibodies (1:500) (Molecular Probes) in antibody dilution buffer for 1 hour at RT. For immunostaining with Biotinylated Lotus Tetragonolobus Lectin (LTL, Vector Labs), a Streptavidin/Biotin Blocking Kit (Vector Labs) and Alexa Fluor 488- or 647-conjugated Streptavidin (Molecular Probes) were used according to manufacturer's instructions.
Nuclei can be counterstained with DAPI (Sigma). […] Immunofluorescence is visualized using an inverted fluorescence microscope (Nikon Eclipse Ti, Tokyo, Japan). Quantification is performed by counting a minimum of five random fields at 10× magnification.
PAX2 is selected since it is an early marker of IM, and, unlike the markers OSR1 or LHX1 which are also expressed in the adjacent lateral plate mesoderm, PAX2 expression is restricted in mesoderm to the IM.

[2] = system: hPSCs (hESC and hiPSC lines); assay: Intermediate mesoderm differentiation: PAX2/LHX1 immunostaining; assay type: cell-based, human; details: BMP-7 added to FGF2 and RA after CHIR 36 hours, day 3
Description: Mesendoderm differentiation—the media is changed to Advanced RPMI (A-RPMI, Invitrogen) supplemented with 1×L-glutamax and 1× penicillin/streptomycin and either CHIR99021 (CHIR, Stemgent), human Wnt3a (R&D systems), and/or human activin A (R&D systems) at the doses described. Definitive endoderm differentiation—cells are treated with A-RPMI+1×L-glu+1×P/S+5 μM CHIR for 24 hours, then A-RPMI+1×Lglu+1×P/S+100 ng/mL of activin A for 2-3 days. Hepatic differentiation—cells at the definitive endoderm stage are treated with A-RPMI+1×L-glu+1×P/S+1×B27 supplement (Invitrogen)+20 ng/mL BMP-4 (R&D systems)+10 ng/mL FGF2 (Invitrogen) for 5 days, then A-RPMI+1×L-glu+1×P/S+1×B27+10 ng/mL HGF for 5 days, then HCM Hepatocyte Culture Medium (Lonza) supplemented with 20 ng/mL Oncostatin M and 10 ng/mL HGF (Peprotech) for 5 days. Pancreatic differentiation—cells at the definitive endoderm stage are treated with DMEM/F12+2% FBS (Hyclone)+50 ng/mL FGF7 (R&D systems) for 2 days, then high-glucose DMEM (Mediatech)+1% B27+2 μM retinoic acid (Sigma)+0.25 μM KAAD cyclopamine (EMD Millipore)+100 ng/mL recombinant human Noggin (R&D systems) for 4 days, then high-glucose DMEM+1% B27+100 ng/mL Noggin+300 nM indolactam V (Stemgent)+1 μM ALK5 inhibitor II (Axxora) for 4 days. Anterior foregut endoderm differentiation—cells at the definitive endoderm stage are treated with DMEM/F12+1×L-glu+1×B27+200 ng/mL Noggin+10 μM SB431542 (Stemgent) for 3 days. For hindgut endoderm differentiation, cells at the definitive endoderm stage were treated with A-RPMI+1×L-glu+1×P/S+2% FBS+500 ng/mL FGF4 (R&D systems)+5 μM CHIR for 4 days. […]
Nuclei can be counterstained with DAPI (Sigma). […] Immunofluorescence is visualized using an inverted fluorescence microscope (Nikon Eclipse Ti, Tokyo, Japan). Quantification is performed by counting a minimum of five random fields at 10× magnification. […]

[3] = system: human pluripotent stem cells (hPSCs); assay: Mesendoderm induction: BRACHYURY immunofluorescence in hPSCs; assay type: cell-based; details: WNT3A alone 500 ng/mL, 24 hours of treatment
Description: For differentiation experiments, hESCs or hiPSCs can be grown on Geltrex, washed once with PBS and dissociated into single cells with Accutase ([…] Technologies). Cells are plated at a density of 4×10^4 cells/cm^2 onto Geltrex-coated plates in mTeSR1 medium supplemented with the ROCK inhibitor Y27632 10 μM (Stemgent). Cells are fed daily with mTeSR1 without Y27632 for 2-3 days until they reached 50% confluency. Mesendoderm differentiation-the media is changed to Advanced RPMI (A-RPMI, Invitrogen) supplemented with 1×L-glutamax and 1× penicillin/streptomycin and either CHIR99021 (CHIR, Stemgent), human Wnt3a (R&D systems), and/or human activin A (R&D systems) at the doses described. Definitive endoderm differentiation-cells are treated with […] for 24 hours, then […]+100 ng/mL of activin A for 2-3 days. Hepatic differentiation-cells at the definitive endoderm stage are treated with […]27 supplement (Invitrogen)+20 ng/mL BMP-4 (R&D systems)+10 ng/mL FGF2 (Invitrogen) for 5 days, then […]27+10 ng/mL HGF for 5 days, then HCM Hepatocyte Culture Medium (Lonza) supplemented with 20 ng/mL Oncostatin M and 10 ng/mL HGF (Peprotech) for 5 days. Pancreatic differentiation-cells at the definitive endoderm stage are treated with DMEM/F12+2% FBS (Hyclone)+50 ng/mL FGF7 (R&D systems) for 2 days, then high-glucose DMEM (Mediatech)+1% B27+2 μM retinoic acid (Sigma)+0.25 μM KAAD cyclopamine (EMD Millipore)+100 ng/mL recombinant human Noggin (R&D systems) for 4 days, then high-glucose DMEM+1% B27+100 ng/mL Noggin+300 nM indolactam V (Stemgent)+1 μM ALK5 inhibitor II (Axxora) for 4 days. Anterior foregut endoderm differentiation-cells at the definitive endoderm stage are treated with DMEM/F12+1×L-glu+1×B27+200 ng/mL Noggin+10 μM SB431542 (Stemgent) for 3 days. […] Immunofluorescence is visualized using an inverted fluorescence microscope (Nikon Eclipse Ti, Tokyo, Japan). Quantification is performed by counting a minimum of five random fields at 10× magnification. […]

## FGF2: fibroblast growth factor-2
[1]; CHIR 24 hours then FGF2 100 ng/mL
  cells positive for PAX2 by immunostaining: 50-60%
[1]; FGF2 added to hPSCs not initially induced with CHIR
  PAX2 expression: absence of PAX2 expression

B1: BMP-7: candidate growth factor screened for PAX2 induction (protein, UniProt P18075 293-431, looked up)
Bone morphogenetic protein 7: STGSKQRSQNRSKTPKNQEALRMANVAENSSSDQRQACKKHELYVSFRDLGWQDWIIAPEGYAAYYCEGECAFPLNSYMNATNHAIVQTLVHFINPETVPKPCCAPTQLNAISVLYFDDSSNVILKKYRNMVVRACGCH
[2]
  expression of LHX1: minimal effect
  percentage of cells expressing PAX2: significantly decreased
[1]; CHIR 24 hours then low doses of factor
  PAX2 expression compared to vehicle control: modest increases

B2: BMP-4: candidate growth factor screened for PAX2 induction (protein, UniProt P12644 293-408, looked up)
Bone morphogenetic protein 4: SPKHHSQRARKKNKNCRRHSLYVDFSDVGWNDWIVAPPGYQAFYCHGDCPFPLADHLNSTNHAIVQTLVNSVNSSIPKACCVPTELSAISMLYLDEYDKVVLKNYQEMVVEGCGCR
[1]; CHIR 24 hours then increasing doses of factor
  PAX2 expression: no PAX2 expression

B3: WNT3A: wingless-type MMTV integration site family, member 3A; human Wnt3a (R&D systems) (protein, UniProt P56704 19-352, looked up)
Protein Wnt-3a: SYPIWWSLAVGPQYSSLGSQPILCASIPGLVPKQLRFCRNYVEIMPSVAEGIKIGIQECQHQFRGRRWNCTTVHDSLAIFGPVLDKATRESAFVHAIASAGVAFAVTRSCAEGTAAICGCSSRHQGSPGKGWKWGGCSEDIEFGGMVSREFADARENRPDARSAMNRHNNEAGRQAIASHMHLKCKCHGLSGSCEVKTCWWSQPDFRAIGDFLKDKYDSASEMVVEKHRESRGWVETLRPRYTYFKVPTERDLVYYEASPNFCEPNPETGSFGTRDRTCNVSSHGIDGCDLLCCGRGHNARAERRREKCRCVFHWCCYVSCQECTRVYDVHTCK
[3]
  cells expressing BRACHY: 26.7±1.9%
